Measured values as given in paper PMC3965363 (Neuropharmacology, 2014).
Like-named read-outs stand apart in the source and are kept apart here.

Tests used:
hCMEC/D3 cells [1] = tested on: hCMEC/D3 cells
bEnd3 cells [2] = tested on: bEnd3 cells
bEnd3 cells [3] = tested on: bEnd3 cells; remark: listed apart in the source
bEnd3 cells [4] = tested on: bEnd3 cells; remark: listed apart in the source
brain of C57BL/6 mice = experiment: Brain clearance index; assay type: in vivo, mouse
[5] = Integrity of 125I-Aβ40 in media without cells; assay type: physicochemical; settings: 0.1 nM 125I-Aβ40 in media without cells
hCMEC/D3 cells [6] = tested on: hCMEC/D3 cells; remark: listed apart in the source
bEnd3 cells [7] = experiment: Aβ40 degradation in bEnd3 cells with IDE or neprilysin inhibitor; assay type: cell-based, mouse; settings: bEnd3, thiorphan 2 mM
hCMEC/D3 cells [8] = experiment: Aβ40 degradation in hCMEC/D3 cells with IDE or neprilysin inhibitor; assay type: cell-based, human; settings: hCMEC/D3, thiorphan 2 mM
brain = settings: ref Shibata et al., 2000; cited from earlier work
mouse brain = settings: ref Barten et al., 2005, Cirrito et al., 2003, cited from earlier work
human brain = settings: ref Mawuenyega et al., 2010, cited from earlier work
BBB = settings: ref Ito et al., 2006; cited from earlier work

Molecule: 125I-Aβ40: radioiodinated amyloid-β 40 peptide tracer (PerkinElmer)
- effect of RAGE inhibition on 125I-Aβ40 degradation (hCMEC/D3 cells [1]; hCMEC/D3, RAGE-IgG 5 µg/ml, 0.1 nM, 12 h, P>0.05): not altered
- effect of RAGE inhibition on 125I-Aβ40 degradation (bEnd3 cells [2]; bEnd3, RAGE-IgG 5 µg/ml, 0.1 nM, 15 min, P>0.05): not altered
- Intrinsic uptake (Vmax/Km) (bEnd3 cells [3]): 2848 nL/min
- effect of inhibition of RAGE, P-gp, or LRP1 on degradation during transport (bEnd3 cells [4]; bEnd3, either direction, RAGE-IgG 5 µg/ml, valspodar 5 µM or RAP 1 µM, 30 min): did not affect
- effect of inhibition of P-gp on A→B transport (bEnd3 cells [4]; bEnd3, valspodar 5 µM pre- and co-incubated, 0.1 nM, 30 min): no alteration
- BCITotal(%), total brain clearance (BBB efflux + degradation) (brain of C57BL/6 mice; mouse): 58.7±3.9%
- BCIBBB(%), clearance across BBB (brain of C57BL/6 mice; mouse, in vivo): 35.6±3.3%
- BCIDegradation(%), clearance by brain degradation (brain of C57BL/6 mice; mouse, in vivo): 23.1±2.3%
- clearance across BBB as share of BCITotal(%) (brain of C57BL/6 mice; mouse, in vivo): 62%
- dimer or higher oligomer formation ([5]; 12 h, 16% bis-tris gel electrophoresis): absence of dimers or higher oligomer formation
- dissociation of 125I from Aβ40 ([5]; investigated time points): insignificant dissociation
- effect of inhibition of RAGE, P-gp, or LRP1 on degradation during transport (hCMEC/D3 cells [6]; hCMEC/D3, either direction, RAGE-IgG 5 µg/ml, valspodar 5 µM or RAP 1 µM, 12 h): did not affect

Molecule: O=C(O)CNC(=O)C(CS)Cc1ccccc1 (centres unmarked) [thiorphan]
- effect of neprilysin inhibition on Aβ40 degradation (bEnd3 cells [7]): did not show any significant effect
- effect of neprilysin inhibition on Aβ40 degradation (hCMEC/D3 cells [8]): did not show any significant effect

Molecule: Aβ40: amyloid-β peptide Aβ40, by-product of proteolytic degradation of amyloid precursor protein
- contribution of CSF flow to overall brain Aβ40 clearance (brain): 10–15%
- effect of P-gp inhibition on brain degradation (brain of C57BL/6 mice; valspodar 40 µM intracerebral, 30 min, NS in Figure 1C): without altering
- half-life of human Aβ40 in mouse brain (mouse brain; PDAPP mice): 2 h
- half-life of human Aβ40 in mouse brain (mouse brain; Tg2576 mice): 0.63 h
- Aβ40 cleared from the brain per hour (human brain; cognitively normal individuals): about 7%
- corresponding half-life of Aβ40 in brain (human brain; cognitively normal individuals): ~ 10 h
- Aβ40 cleared from the brain per hour (human brain; patients with AD): 5.2%
- corresponding half-life of Aβ40 in brain (human brain; patients with AD): ~ 13 h

Molecule: Aβ42: amyloid-β peptide Aβ42, prone to rapid aggregation
- clearance across the BBB compared to Aβ40 (BBB): slower

Molecule: valspodar
- effect of P-gp inhibition on 125I-Aβ40 degradation (hCMEC/D3 cells [1]; hCMEC/D3, valspodar 5 µM, 0.1 nM 125I-Aβ40, 12 h, P>0.05): no effect
- change in 125I-Aβ40 accumulation (P-gp inhibition) (bEnd3 cells [2]; bEnd3, valspodar 5 µM pre- and co-incubated, 0.1 nM 125I-Aβ40, 15 min, P>0.05): did not cause any significant change
- effect of P-gp inhibition on 125I-Aβ40 degradation (bEnd3 cells [2]; bEnd3, valspodar 5 µM, 0.1 nM 125I-Aβ40, 15 min, P>0.05): no effect

B1: RAP: an LRP1 inhibitor (receptor-associated protein; Oxford Biomedical Research) (protein, UniProt P30533 35-357, looked up)
Alpha-2-macroglobulin …: YSREKNQPKPSPKRESGEEFRMEKLNQLWEKAQRLHLPPVRLAELHADLKIQERDELAWKKLKLDGLDEDGEKEARLIRNLNVILAKYGLDGKKDARQVTSNSLSGTQEDGLDDPRLEKLWHKAKTSGKFSGEELDKLWREFLHHKEKVHEYNVLLETLSRTEEIHENVISPSDLSDIKGSVLHSRHTELKEKLRSINQGLDRLRRVSHQGYSTEAEFEEPRVIDLWDLAQSANLTDKELEAFREELKHFEAKIEKHNHYQKQLEIAHEKLRHAESVGDGERVSRSREKHALLEGRTKELGYTVKKHLQDLSGRISRARHNEL
- decrease of cellular level of intact 125I-Aβ40 (LRP1 inhibition) (hCMEC/D3 cells [1]; hCMEC/D3, RAP 1 µM pre- and co-incubated, 0.1 nM 125I-Aβ40, 12 h, P<0.001): 42%
- decrease of 125I-Aβ40 degradation (LRP1 inhibition) (hCMEC/D3 cells [1]; hCMEC/D3, RAP 1 µM, 0.1 nM 125I-Aβ40, 12 h, P<0.01): 28%
- decrease of cellular level of intact 125I-Aβ40 (LRP1 inhibition) (bEnd3 cells [2]; bEnd3, RAP 1 µM pre- and co-incubated, 0.1 nM 125I-Aβ40, 15 min, P<0.001): 67%
- decrease of 125I-Aβ40 degradation (LRP1 inhibition) (bEnd3 cells [2]; bEnd3, RAP 1 µM, 0.1 nM 125I-Aβ40, 15 min, P<0.01): 24%
- decrease of intact 125I-Aβ40 transport B→A (LRP1 inhibition) (bEnd3 cells [4]; bEnd3, RAP 1 µM pre- and co-incubated, 0.1 nM 125I-Aβ40, 30 min, P<0.01): 42%
- decrease of intact 125I-Aβ40 transport B→A (LRP1 inhibition) (hCMEC/D3 cells [6]; hCMEC/D3, RAP 1 µM pre- and co-incubated, 0.1 nM 125I-Aβ40, 12 h, P<0.01): 42%
